Reference: publication PMC9482650, “Quantitative fragmentomics allow affinity mapping of interactomes” (Nature Communications, 2022)

Experiments:
Assay in all cases: holdup assay
Design in all cases: key: below the threshold = too weak to quantify, mostly under pKd 3.1 to 4
Conditions in all cases: plain residues with an end cap or a label only (N-terminal biotin on a linker: ttds)
MAGIX, Q9H6Y5 = target: MAGIX, Q9H6Y5
MPP1, Q00013 = target: T1, MPP1, Q00013
T1 sequence (Q00013 66-162, limits assumed, looked up): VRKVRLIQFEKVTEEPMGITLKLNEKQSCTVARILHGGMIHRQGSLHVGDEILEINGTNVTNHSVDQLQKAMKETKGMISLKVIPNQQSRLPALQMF

MPDZ_6, O75970 = target: T2, MPDZ_6, O75970
T2 sequence (O75970 1003-1099, limits assumed, looked up): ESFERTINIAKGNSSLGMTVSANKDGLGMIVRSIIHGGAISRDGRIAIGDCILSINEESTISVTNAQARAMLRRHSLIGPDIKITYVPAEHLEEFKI

PDLIM4, P50479 = target: PDLIM4, P50479
Sequence of PDLIM4, P50479 (P50479 1-83): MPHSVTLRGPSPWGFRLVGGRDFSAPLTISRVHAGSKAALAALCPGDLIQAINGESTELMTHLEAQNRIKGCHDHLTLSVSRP

DLG5_2, Q8TDM6 = target: DLG5_2, Q8TDM6
Sequence of DLG5_2, Q8TDM6 (Q8TDM6 714-800): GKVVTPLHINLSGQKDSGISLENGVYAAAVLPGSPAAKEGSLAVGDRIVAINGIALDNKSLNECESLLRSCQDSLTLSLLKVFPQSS

DLG2_1, Q15700 = target: DLG2_1, Q15700
USH1C_2, Q9Y6N9 = target: T3, USH1C_2, Q9Y6N9
T3 sequence (Q9Y6N9 206-303, limits assumed, looked up): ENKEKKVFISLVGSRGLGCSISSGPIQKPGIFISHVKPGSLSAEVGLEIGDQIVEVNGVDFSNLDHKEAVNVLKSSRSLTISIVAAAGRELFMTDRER

PDLIM3, Q53GG5 = target: T4, PDLIM3, Q53GG5
T4 sequence (Q53GG5 1-94, limits assumed, looked up): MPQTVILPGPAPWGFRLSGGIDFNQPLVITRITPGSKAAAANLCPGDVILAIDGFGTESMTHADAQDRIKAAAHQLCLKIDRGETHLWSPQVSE

CNKSR1, Q969H4 = target: T5, CNKSR1, Q969H4
T5 sequence (Q969H4 191-295, limits assumed, looked up): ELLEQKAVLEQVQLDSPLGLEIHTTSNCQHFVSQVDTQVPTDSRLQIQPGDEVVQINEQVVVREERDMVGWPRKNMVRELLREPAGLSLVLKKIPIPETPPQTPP

PTPN13_5, Q12923 = target: T6, PTPN13_5, Q12923
T6 sequence (Q12923 1877-1975, limits assumed, looked up): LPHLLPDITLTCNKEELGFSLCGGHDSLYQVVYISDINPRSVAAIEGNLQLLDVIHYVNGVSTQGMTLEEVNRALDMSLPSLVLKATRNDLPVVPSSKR

MLLT4, P55196 = target: T7, MLLT4, P55196
T7 sequence (P55196 1002-1103, limits assumed, looked up): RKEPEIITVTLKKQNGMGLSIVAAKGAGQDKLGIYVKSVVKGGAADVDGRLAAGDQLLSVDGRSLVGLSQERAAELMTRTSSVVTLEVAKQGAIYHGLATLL

MAGI1_3, Q96QZ7 = target: MAGI1_3, Q96QZ7
Sequence of MAGI1_3, Q96QZ7 (Q96QZ7 638-725): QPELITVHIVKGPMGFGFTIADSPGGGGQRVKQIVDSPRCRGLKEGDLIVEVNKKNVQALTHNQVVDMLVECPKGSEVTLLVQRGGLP

SHROOM3, Q8TF72 = target: T8, SHROOM3, Q8TF72
T8 sequence (Q8TF72 20-120, limits assumed, looked up): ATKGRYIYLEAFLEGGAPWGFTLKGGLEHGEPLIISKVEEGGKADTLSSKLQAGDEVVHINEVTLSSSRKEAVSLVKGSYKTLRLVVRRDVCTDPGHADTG

SHROOM4, Q9ULL8 = target: T9, SHROOM4, Q9ULL8
T9 sequence (Q9ULL8 5-102, limits assumed, looked up): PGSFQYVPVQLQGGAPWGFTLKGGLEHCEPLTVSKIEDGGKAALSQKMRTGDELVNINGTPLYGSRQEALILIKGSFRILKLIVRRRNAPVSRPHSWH

MAGI3_3, Q5TCQ9 = target: MAGI3_3, Q5TCQ9
Sequence of MAGI3_3, Q5TCQ9 (Q5TCQ9 572-655): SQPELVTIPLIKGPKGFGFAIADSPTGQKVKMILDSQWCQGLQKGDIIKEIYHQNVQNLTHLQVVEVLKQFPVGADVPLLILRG

PDZD7_2, Q9H5P4 = target: T10, PDZD7_2, Q9H5P4
T10 sequence (Q9H5P4 205-303, limits assumed, looked up): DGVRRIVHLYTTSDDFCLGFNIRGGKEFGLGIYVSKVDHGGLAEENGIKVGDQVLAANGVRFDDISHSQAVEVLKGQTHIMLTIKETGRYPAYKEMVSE

NHERF3_2, Q5T2W1 = target: T11, NHERF3_2, Q5T2W1
T11 sequence (Q5T2W1 129-225, limits assumed, looked up): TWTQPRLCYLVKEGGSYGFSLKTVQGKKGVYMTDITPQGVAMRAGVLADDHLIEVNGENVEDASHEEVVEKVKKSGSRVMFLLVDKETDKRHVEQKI

PARD3B_3, Q8TEW8 = target: PARD3B_3, Q8TEW8
Sequence of PARD3B_3, Q8TEW8 (Q8TEW8 490-594): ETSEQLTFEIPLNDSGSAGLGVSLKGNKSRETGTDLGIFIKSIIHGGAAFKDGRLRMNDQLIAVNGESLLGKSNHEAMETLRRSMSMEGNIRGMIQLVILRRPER

LNX2_4, Q8N448 = target: T12, LNX2_4, Q8N448
T12 sequence (Q8N448 595-690, limits assumed, looked up): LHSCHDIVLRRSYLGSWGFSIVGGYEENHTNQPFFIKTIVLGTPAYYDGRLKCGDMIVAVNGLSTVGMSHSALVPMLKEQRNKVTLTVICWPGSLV

APBA3_2, O96018 = target: T13, APBA3_2, O96018
T13 sequence (O96018 480-570, limits assumed, looked up): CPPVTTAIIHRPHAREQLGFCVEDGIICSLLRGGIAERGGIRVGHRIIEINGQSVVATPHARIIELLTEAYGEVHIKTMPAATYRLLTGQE

PARD3_1, Q8TEW0 = target: PARD3_1, Q8TEW0
Sequence of PARD3_1, Q8TEW0 (Q8TEW0 264-372): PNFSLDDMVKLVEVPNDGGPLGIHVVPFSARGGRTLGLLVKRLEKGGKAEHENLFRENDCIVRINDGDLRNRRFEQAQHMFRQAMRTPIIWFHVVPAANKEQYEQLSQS

PTPN13_2, Q12923 = target: PTPN13_2, Q12923
Sequence of PTPN13_2, Q12923 (Q12923 1363-1462): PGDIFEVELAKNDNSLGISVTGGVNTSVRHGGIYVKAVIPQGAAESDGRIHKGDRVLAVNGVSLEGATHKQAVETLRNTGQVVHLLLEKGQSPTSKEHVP

SHANK3, Q9BYB0 = target: T14, SHANK3, Q9BYB0
T14 sequence (Q9BYB0 641-750, limits assumed, looked up): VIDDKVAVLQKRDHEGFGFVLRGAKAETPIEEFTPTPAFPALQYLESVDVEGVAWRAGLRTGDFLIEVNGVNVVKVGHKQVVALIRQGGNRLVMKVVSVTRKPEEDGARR

Sequence of MAGIX, Q9H6Y5 (Q9H6Y5 118-211): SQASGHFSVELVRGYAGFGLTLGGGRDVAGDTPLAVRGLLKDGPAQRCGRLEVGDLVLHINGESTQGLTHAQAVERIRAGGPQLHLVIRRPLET

pKd (MAGIX, Q9H6Y5): below the threshold
pKd (MPP1, Q00013): below the threshold
pKd (MPDZ_6, O75970): below the threshold
pKd (PDLIM4, P50479): below the threshold
pKd (DLG5_2, Q8TDM6): below the threshold
pKd (DLG2_1, Q15700): 4.21
pKd (USH1C_2, Q9Y6N9): below the threshold
pKd (PDLIM3, Q53GG5): 4.11
pKd (CNKSR1, Q969H4): below the threshold
pKd (PTPN13_5, Q12923): below the threshold
pKd (MLLT4, P55196): below the threshold
pKd (MAGI1_3, Q96QZ7): below the threshold
pKd (SHROOM3, Q8TF72): below the threshold
pKd (SHROOM4, Q9ULL8): below the threshold
pKd (MAGI3_3, Q5TCQ9): below the threshold
pKd (PDZD7_2, Q9H5P4): 4.54
pKd (NHERF3_2, Q5T2W1): 4.06
pKd (PARD3B_3, Q8TEW8): below the threshold
pKd (LNX2_4, Q8N448): below the threshold
pKd (APBA3_2, O96018): below the threshold
pKd (PARD3_1, Q8TEW0): below the threshold
pKd (PTPN13_2, Q12923): below the threshold
pKd (SHANK3, Q9BYB0): 5.54
Binder: STLTIFETAL [ABCC4, O15439]
